Substrate in data set [1]: COc1ccc(-c2coc3cc(O)ccc3c2=O)cc1
The data set can be described thus: Hydroxylase assay with yeast microsomes expressing recombinant MtCYP81E9 (I3′H). The class given is biochemical, Medicago truncatula. The conditions noted are these: other: 2 mM NADPH and pH 8.0, 25.0 °C.

Substrate in data set [2]: COc1ccc(-c2coc3cc(O)cc(O)c3c2=O)cc1
The description is as above. The class given is biochemical, Medicago truncatula. As to conditions: other: 2 mM NADPH and pH 8.0, 25.0 °C.

B1: I3′H (MtCYP81E9) (Medicago truncatula) (protein)
chain: MTLFYYSLLSLSFIITIKILLKITSRRLKNLPPGPPTIPIIGNLHHLKHPLHRTFTTLSQTYGDIFSLWFGSRLVVVVSSPSLAHECFTKNDIILANRPRFLTGKYIFYNYTTLGSASYGDHWRNLRRITTIDVLSNNRLNSFLGVRRDETNRLIQKLLKDVVSEGFGFTKVELRPRLTEMTFNAMMRMISGKRYYGDDGDVSDVEEAKQFREIISEMMSLLGANNKGDFLPLLRVVDLDNLEKRCKRIAKRSNAFLEGLIEEHRRGNIHSDGGTMIDHLLKLSESQPEYYSDHLIKGLIQGMLLAGTDTSAVTIEWVMSELLNHPEVLKKAKEELDTQIGKNKLVDEQDLSKLPYLQNIISETLRLHPPAPLLLPHYSSEDCTIGEFNVPKDTIILTNVWGIHRDPKHWNDALSFKPERFEKEEEVNKVMAFGLGRRACPGLSLAQRTVGFTVGLLIQCFEWERESEEKLDMMEGKGITMPMKIPLRAMCKALPIANDVTK
notes: made in house; host or cells: Saccharomyces cerevisiae WAT11, vector YeDP60; microsomal fraction
B1: in data set [1], the Km was 49.7 µM and the kcat was found to be 0.028 s⁻¹. Also, in data set [2], the Km was 112.6 µM and the kcat came out at 0.1 s⁻¹.

(Values after patent US8129592B2, “Plant isoflavonoid hydroxylases and methods of use thereof” (The Samuel Roberts Noble Foundation, Inc., priority 2003, dated 2012).)
